Drawing on the supplement of paper PMC10126150, this text covers switch fluorescence ratio for 78 sequences.

± gives the standard deviation of the averaged measurements.

The test system of this data set is ATP. Kind of data set: switch fluorescence ratio, 500 uM ATP over buffer (Cy3 cluster intensity, sum of 5 cycles each) (fold (ratio)); higher = stronger signal-on switching upon ATP binding; sequences stand for … in TCGTCGGCAGCGTCAGATGTGTATAAGAGACAGTTTTTTTTTTTTTTTTTTTTTTTTT…TC. As to conditions: aptamer strand: ATP DNA aptamer (quencher-CACCTGGGGGAGTATTGCGGAGGAAGG + anchor), 100 nM annealed; ATP concentration: 500 uM. The method, boiled down:
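Per cluster, summed Cy3 intensity from the target cycles was divided by that from the buffer cycles to give the fluorescence ratio, then averaged per switch-domain sequence. Clusters outside 100-1000 RFU were excluded. The Cy3-labelled switching-strand clusters, on a modified Illumina MiSeq flow-cell, were annealed to 100 nM quencher-labelled ATP aptamer and imaged in selection buffer, then after 15 min with 500 uM ATP at 22 °C, for five cycles with NaOH stripping and re-annealing between them.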
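Also: ATP exposure 15 min at 22 °C before imaging.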

TGTGCTTGGG: the switch fluorescence ratio was 1.04 ± 0.027.

In the case of AGCGGATCGG, the switch fluorescence ratio turned out to be 0.991 ± 0.02.

Take TTAAAATTGC: the switch fluorescence ratio was determined as 1.08 ± 0.064.

On to GACTGGGGGT, for which the switch fluorescence ratio is 0.998 ± 0.033.

On to AGGGGATAAG, for which the switch fluorescence ratio came out at 0.992 ± 0.029.

For GTAGTCTAGA, the switch fluorescence ratio is 0.965 ± 0.024.

As to AAGGTTAGAC, the switch fluorescence ratio was determined as 1.03 ± 0.012.

With GGTGGTTGGA, the switch fluorescence ratio was found to be 1.02 ± 0.04.

Consider CAGGAACTTA, for which the switch fluorescence ratio was found to be 0.9843 ± 0.0052.

As for GCGATCAGGT, the switch fluorescence ratio worked out at 1.02 ± 0.017.

On to TTTACCATAG, for which the switch fluorescence ratio was 1.06 ± 0.019.

For the sequence TTTGTGGCTA, the switch fluorescence ratio came to 1.03 ± 0.031.

In the case of TTGGGCGACG, the switch fluorescence ratio amounted to 1.036 ± 0.0032.

As to CCAGCACCTC, the switch fluorescence ratio is 1.45 ± 0.039.

For the sequence TACCGTTTGC, the switch fluorescence ratio was found to be 1.19 ± 0.089.

Consider TTGGTTCTGG, for which the switch fluorescence ratio was found to be 0.962 ± 0.038.

As for TTAAAATCGA, the switch fluorescence ratio was 0.972 ± 0.072.

Regarding AATATTTCCA, the switch fluorescence ratio was 0.974 ± 0.023.

For TGAAAGTGGA, the switch fluorescence ratio was found to be 1.05 ± 0.034.

For the sequence ATGTAGAAAT, the switch fluorescence ratio stood at 1.05 ± 0.039.

Turning to AGTTTCGGCG, the switch fluorescence ratio is 1 ± 0.02.

As to ACTCTCGAGG, the switch fluorescence ratio came out at 1.24 ± 0.34.

Take ACCCTCGAAT: the switch fluorescence ratio was 1.02 ± 0.011.

Consider TGCCGCTTCT, for which the switch fluorescence ratio turned out to be 1.02 ± 0.058.

Regarding TTACGCATCA, the switch fluorescence ratio was determined as 1.14 ± 0.021.

For ACGTATAGAG, the switch fluorescence ratio turned out to be 0.991 ± 0.042.

As for TGCTGCAGTT, the switch fluorescence ratio was found to be 0.982 ± 0.055.

In the case of GGCTTGGTGT, the switch fluorescence ratio worked out at 1 ± 0.013.

TTAACAGTTT: the switch fluorescence ratio was found to be 1.001 ± 0.0067.

For the sequence CGTTTATGAG, the switch fluorescence ratio came to 1.022 ± 0.0067.

Consider AAGAAGTAGG, for which the switch fluorescence ratio was 1 ± 0.062.

With AAGGGCCAAT, the switch fluorescence ratio came out at 1 ± 0.022.

In the case of AAGGAGTTGT, the switch fluorescence ratio turned out to be 0.951 ± 0.05.

As for GATGGTTCGC, the switch fluorescence ratio worked out at 0.976 ± 0.015.

With TAGTAAAGAT, the switch fluorescence ratio is 1 ± 0.017.

Turning to AGTTAGAGTG, the switch fluorescence ratio came to 0.976 ± 0.016.

On to AGGTGTTTTG, for which the switch fluorescence ratio was 1.02 ± 0.0087.

TGTGTATTGG: the switch fluorescence ratio came out at 1 ± 0.045.

With ATGTATGGGC, the switch fluorescence ratio is 0.9814 ± 0.0047.

As to ACGAGGGAAA, the switch fluorescence ratio is 2.12 ± 1.6.

Take TAAGAGCAGG: the switch fluorescence ratio stood at 1.1 ± 0.091.

For GTGATTGAGT, the switch fluorescence ratio came out at 0.9707 ± 0.0089.

In the case of GGGGGAAAGC, the switch fluorescence ratio came out at 0.984 ± 0.049.

Regarding GATTTTGTTC, the switch fluorescence ratio was 1.03 ± 0.02.

Turning to TTTGAAAACG, the switch fluorescence ratio was determined as 1.02 ± 0.033.

As to TGAAATATGT, the switch fluorescence ratio was determined as 0.987 ± 0.04.

Regarding CTTTTTGACT, the switch fluorescence ratio was found to be 1.01 ± 0.028.

On to CCGTTAGCGG, for which the switch fluorescence ratio is 1.1074 ± 0.00044.

As to TTACCGTGTT, the switch fluorescence ratio is 1.08 ± 0.037.

As to GCCGTGTATG, the switch fluorescence ratio came out at 1.06 ± 0.14.

Take AACTAGTGGC: the switch fluorescence ratio is 0.998 ± 0.049.

In the case of CATGGTAGGA, the switch fluorescence ratio turned out to be 0.975 ± 0.026.

As for CCGGTCCCTA, the switch fluorescence ratio came out at 1 ± 0.011.

Turning to GATGGGTTTC, the switch fluorescence ratio stood at 0.987 ± 0.012.

For CAATTTGAAG, the switch fluorescence ratio stood at 0.978 ± 0.051.

Turning to GACCAACAGT, the switch fluorescence ratio was determined as 1.03 ± 0.021.

ATTTTGGAGC: the switch fluorescence ratio amounted to 0.999 ± 0.058.

In the case of GCCGGGGGCG, the switch fluorescence ratio came out at 0.982 ± 0.051.

Turning to TTCGATACTT, the switch fluorescence ratio was 0.9922 ± 0.0059.

Regarding CGGGAGGGTT, the switch fluorescence ratio was found to be 1 ± 0.02.

CGGGGGTGCT: the switch fluorescence ratio turned out to be 0.966 ± 0.044.

For the sequence AGGGTTTGCG, the switch fluorescence ratio is 1.04 ± 0.042.

As for AACGGGGTAG, the switch fluorescence ratio is 0.983 ± 0.034.

On to AGAGGGGTCG, for which the switch fluorescence ratio was found to be 1.02 ± 0.058.

With GATTAAGGGT, the switch fluorescence ratio came to 1.04 ± 0.03.

With GCACGTGTTC, the switch fluorescence ratio is 1.119 ± 0.0096.

Regarding GAGTGCGGTT, the switch fluorescence ratio came out at 0.99 ± 0.057.

Consider TTTGCTGCGG, for which the switch fluorescence ratio stood at 1.03 ± 0.041.

As for ATGGGAACCT, the switch fluorescence ratio is 1.12 ± 0.18.

GTTTTGAATT: the switch fluorescence ratio is 1 ± 0.04.

As to AGATGGCTGG, the switch fluorescence ratio was 1.02 ± 0.012.

Regarding ATTGTAGTGT, the switch fluorescence ratio amounted to 1.01 ± 0.025.

Take CGCGGATGGG: the switch fluorescence ratio was 1.05 ± 0.05.

With TGGGCCGGTT, the switch fluorescence ratio came out at 1.05 ± 0.099.

Consider CAGATGGGAG, for which the switch fluorescence ratio came to 1.02 ± 0.014.

Consider TAATTATGCC, for which the switch fluorescence ratio turned out to be 1.05 ± 0.04.

On to AGTGTTTGCC, for which the switch fluorescence ratio amounted to 1.036 ± 0.0035.

On to CCACGGGGGG, for which the switch fluorescence ratio turned out to be 1.27 ± 0.1.
